{"source": "the RNAGym collection of RNA variant scans (doi:10.7554/elife.80360)", "parents": {"B1": {"name": "Hairpin Ribozyme (parent)", "chain": "GUCCUCUUUCACGUGCGCGUGAAAGAGAGAAGUGAACCAGAGAAACACACGUUGUGGUAUAUUACCUGGUA"}}}
{"variants_of": "B1", "test": "self-cleavage, relative activity (ratio to wild type); higher = more cleavage; co-transcriptional"}
{"variant": "GUCCUCUUUCACGUGCACGUGAAAGAGAGAAGUGAACCAGAGAAACACACGGUGUGGUAUAUUACCUGGUA", "note": "[G17A U52G]", "self-cleavage": 0.982}
{"variant": "GUCCUCUUUCACGUGCGCGUGAAAAAGAGAAGUGAACCAGAGAAACACACGGUGUGGUAUAUUACCUGGUA", "note": "[G25A U52G]", "self-cleavage": 0.61}
{"variant": "GUCCUCUUUCAAGUUCGCGUGAAAGAGAGAAGUGAACCAGAGAAACACACGUUGUGGUAUAUUACCUGGUA", "note": "[C12A G15U]", "self-cleavage": 0.805}
{"variant": "GUCCUCUUUCACGUGCGCGUGAAAGAGAGAAGUGAACCACAGAAACACACGUUGUGGUAUAUCACCUGGUA", "note": "[G40C U63C]", "self-cleavage": 0.164}
{"variant": "GUCCUCUUUCACGUGCGCUUGAAAGAGAGAAGUGAACCAGAGAAACACACGUUGUGGUAUAUUGCCUGGUA", "note": "[G19U A64G]", "self-cleavage": 0.539}
{"variant": "GUCCUCUUUCACGUGCGCGUGAAAGAGAGAAGUGAACCAGAGAAACACACGUUGAGCUAUAUUACCUGGUA", "note": "[U55A G57C]", "self-cleavage": 0.146}
{"variant": "GUCCUCUUUCACGUGCGAGUGAAAGAGAGAAGUGAACCAGAGAAACACACGUUGUGGUACAUUACCUGGUA", "note": "[C18A U60C]", "self-cleavage": 1.1}
{"variant": "GUCCUCUUUCACGUGCGCGUGAAAGAGAGAAGUUACCCAGAGAAACACACGUUGUGGUAUAUUACCUGGUA", "note": "[G34U A36C]", "self-cleavage": 1.02}
{"variant": "GUCCUCUUUCACGUGCGCGUGAAAGAGAGAGGUGAACCAGAGAAACACACGUUGUGGUAUAUUAGCUGGUA", "note": "[A31G C65G]", "self-cleavage": 0.17}
{"variant": "GUCCUCUUUCACGUGCGCGGGAAAGAGAGAAGUGAACCAGAGAAACACACGUUGUGGUAUAUUUCCUGGUA", "note": "[U20G A64U]", "self-cleavage": 0.141}
{"variant": "GUCCUCUUUCACGUGCGCGUCAAAGAGAGAAGUGAACCAGAGAAACACACGUUGUGGUGUAUUACCUGGUA", "note": "[G21C A59G]", "self-cleavage": 0.206}
{"variant": "GUCCUCUUUCACGUGCGCGUGAAAGAGGGAAGUGAACCAGAGAAACACACAUUGUGGUAUAUUACCUGGUA", "note": "[A28G G51A]", "self-cleavage": 1.25}
{"variant": "GUCCUCUUUCACGUGCGCGUGAAAGAGAGAAGUGAGCCAGAGAAACACAUGUUGUGGUAUAUUACCUGGUA", "note": "[A36G C50U]", "self-cleavage": 0.407}
{"variant": "GUCCUCUUUCACGUGCGCGUGAAAGAGAGAAGUGAAACAGAGAAACACACGUUGUGGUAUAUUACGUGGUA", "note": "[C37A C66G]", "self-cleavage": 0.105}
{"variant": "GUCCUCUCUCACGUGCGCGUGAAAGAGAGGAGUGAACCAGAGAAACACACGUUGUGGUAUAUUACCUGGUA", "note": "[U8C A30G]", "self-cleavage": 0.144}
{"variant": "GUCCUAUUUCACGUGCGCGUGAAAGAUAGAAGUGAACCAGAGAAACACACGUUGUGGUAUAUUACCUGGUA", "note": "[C6A G27U]", "self-cleavage": 0.121}
{"variant": "GUCUUCUUUCACGUGCGCGUGAAAGAGAGAAGUGAACCAGAGAAACACACGUAGUGGUAUAUUACCUGGUA", "note": "[C4U U53A]", "self-cleavage": 0.358}
{"variant": "GUCCUCUUUCACGUGCGCGUGAAAGAGAGACGUGAUCCAGAGAAACACACGUUGUGGUAUAUUACCUGGUA", "note": "[A31C A36U]", "self-cleavage": 0.0851}
{"variant": "GUCCUGUUUCACGUGCGCGUGAAAGAGAGAAGUGACCCAGAGAAACACACGUUGUGGUAUAUUACCUGGUA", "note": "[C6G A36C]", "self-cleavage": 0.307}
{"variant": "GUCCUCUUUCACGUGCGCUUGAAAGAGAGAAGUGAACCAGAGAUACACACGUUGUGGUAUAUUACCUGGUA", "note": "[G19U A44U]", "self-cleavage": 0.124}
{"variant": "GUCCUCUUUCACGUGCGAGUGAAAGAGAGAAGUGAACCAGAGCAACACACGUUGUGGUAUAUUACCUGGUA", "note": "[C18A A43C]", "self-cleavage": 0.107}
{"variant": "GUCUUCUUUCACGUGCGCGUGAAAGAGAGAAGUGAACCAGAGAAAUACACGUUGUGGUAUAUUACCUGGUA", "note": "[C4U C46U]", "self-cleavage": 0.152}
{"variant": "GUCCUCUUUCACGUGCGCGUGAAACAGAGAAGUGAACCAGAGAAACACACGUUGUGGUAUAUGACCUGGUA", "note": "[G25C U63G]", "self-cleavage": 0.189}
{"variant": "GUCCUCUUUCACGAGCGCGUGAACGAGAGAAGUGAACCAGAGAAACACACGUUGUGGUAUAUUACCUGGUA", "note": "[U14A A24C]", "self-cleavage": 0.703}
{"variant": "GCCCUCUUUCACGUGCGCGUGAAAGAGAGAAUUGAACCAGAGAAACACACGUUGUGGUAUAUUACCUGGUA", "note": "[U2C G32U]", "self-cleavage": 0.183}
{"variant": "GUCCUCUUUCACGUGCGCGUGAAAGAGAGAAGUGAACCAGAGAAACAUACUUUGUGGUAUAUUACCUGGUA", "note": "[C48U G51U]", "self-cleavage": 0.165}
{"variant": "GGCCUCUUUCACGUGCGCGUGAAAGAGAGAAGUGAACCAGAGAAACACACGAUGUGGUAUAUUACCUGGUA", "note": "[U2G U52A]", "self-cleavage": 0.33}
{"variant": "GUCCUCUUUCUCGUGCGCGUGAAAGAGAGAAGUGAACCAGAGAAACACACGUUGUGGUAUAUUCCCUGGUA", "note": "[A11U A64C]", "self-cleavage": 0.175}
{"variant": "GUCCUCUUACACGUACGCGUGAAAGAGAGAAGUGAACCAGAGAAACACACGUUGUGGUAUAUUACCUGGUA", "note": "[U9A G15A]", "self-cleavage": 0.704}
{"variant": "GUCGUCUUUCGCGUGCGCGUGAAAGAGAGAAGUGAACCAGAGAAACACACGUUGUGGUAUAUUACCUGGUA", "note": "[C4G A11G]", "self-cleavage": 0.272}
{"variant": "GUCCUCUAUCACGUGCGCGUGAAAGGGAGAAGUGAACCAGAGAAACACACGUUGUGGUAUAUUACCUGGUA", "note": "[U8A A26G]", "self-cleavage": 0.606}
{"variant": "UUCCUCUUUCACGUGCGCGUGAAAGAGAGAAGUGAUCCAGAGAAACACACGUUGUGGUAUAUUACCUGGUA", "note": "[G1U A36U]", "self-cleavage": 0.224}
{"variant": "GUCCUCUUCCACGUGCGCGUGAAAGAGAGAAGUGAACCAAAGAAACACACGUUGUGGUAUAUUACCUGGUA", "note": "[U9C G40A]", "self-cleavage": 0.313}
{"variant": "GUCGUCUUUCACGUGCGCGUGAAAGAGAGAAGUGAAUCAGAGAAACACACGUUGUGGUAUAUUACCUGGUA", "note": "[C4G C37U]", "self-cleavage": 0.222}
{"variant": "GACGUCUUUCACGUGCGCGUGAAAGAGAGAAGUGAACCAGAGAAACACACGUUGUGGUAUAUUACCUGGUA", "note": "[U2A C4G]", "self-cleavage": 0.0724}
{"variant": "GUCCUCUUUCACGUGCGCGUGAAAGAGAGAAGUGAACCAGAGAAAUACACUUUGUGGUAUAUUACCUGGUA", "note": "[C46U G51U]", "self-cleavage": 0.256}
{"variant": "GUCCUCUUUCACGUGCGCGUGACAGAGAGAAGUGAACCAGAGAAACACACGUUGUGGUAUAUUACCUGGUU", "note": "[A23C A71U]", "self-cleavage": 0.832}
{"variant": "GUCCUCUUUCACGUGCGCGUGAAAAAGAGAAGUGAACCAGAGGAACACACGUUGUGGUAUAUUACCUGGUA", "note": "[G25A A43G]", "self-cleavage": 0.133}
